From paper PMC3689302 come the findings set out here.

This data set has as its target Bh-RNase HC (RNase HI catalytic domain, D132N) (Bacillus halodurans (genomic DNA from …, UniProt Q9KEI9 58-196, D132N)). The data set can be described thus: X-ray crystallography.

B1: Dickerson-Drew dodecamer (DDD) (dsDNA)
DNA 1: CGCGAATTCGCG
DNA 2: CGCGAATTCGCG
For B1, the binding result is on record as “binds”.
